This test concerns the target canine IL-31RA expressed on HEK-Blue STAT3 canine IL-31R reporter cells (with canine OSMR) (canine). The test is described as follows: cell-based or functional assay.

The record followed here is patent US20250388683A1 (VETOQUINOL, published 2025).

B1: 8D3-VH-H/8D3-VL-Ev2 caninized antibody (antibody, V domains shown)
VH: EVTLQESGPGLVKPSQTLSLTCVASGFSIKDSFIHWLRQRPGRGLEWIGRIDPAQGATEYDANFQGRISITADTAKNQASLQLSSMTTEDTAVYYCARYYYGASHFDAWGQGTLVTVSS
VL: RIVMTQSPGSLAGSVGESVSINCKSSQSVTNDVTWYQQKPGEAPKVLIHYASQRYSGVPARFSGSGYGTDFTLTINNLQAEDVGDYFCQQDYASPFTFGQGTKLEIK
B1: the “Mean IC50 (nM) (n = 3), HEK-Blue cell-based SEAP assay” value (shortened to “Mean IC50 (nM)”) was determined as 0.59 nM.

B2: 8D3-VH-Lv2/8D3-VL-H caninized antibody (antibody, V domains shown)
VH: EVTLQESGPGLVKPSQTLSLTCVASGFSIKSSFIHWLRQRPGRGLEWIGRIDPLQGATEYNPVFQGRLSITADTAKNQVSLQLSSMTTEDTAVYYCARYHYAQSHFDAWGQGTLVTVSS
VL: RIVMTQSPGSLAGSVGESVSINCKSSQSVTNDLTWYQQKPGEAPKVLITYASQRYTGVPARFSGSGYGTDFTLTINNLQAEDVGDYFCQQDYASPFTFGQGTKLEIK
Take B2: the “Mean IC50 (nM)” value is 0.54 nM.

B3: 8D3-VH-Lv2/8D3-VL-E caninized antibody (antibody, V domains shown)
VH: EVTLQESGPGLVKPSQTLSLTCVASGFSIKSSFIHWLRQRPGRGLEWIGRIDPLQGATEYNPVFQGRLSITADTAKNQVSLQLSSMTTEDTAVYYCARYHYAQSHFDAWGQGTLVTVSS
VL: RIVMTQSPGSLAVSVGESVSINCKSSQSVTNDVTWYQWKPGEAPKVLITYASIRYSGVPARFSGSGYGTDFTLTINNLQAEDVGDYFCQQDYASPFTFGQGTKLEIK
Take B3: the “Mean IC50 (nM)” value is 0.49 nM.

B4: 8D3-VH-N/8D3-VL-E caninized antibody (antibody, V domains shown)
VH: EVTLQESGPGLVKPSQTLSLTCVASGFSIKSSFIHWLRQRPGRGLEWIGYIDPLQGGTEYNPVFQGRISITADTAKNQVSLQLSSMTTEDTAVYYCARYYYAQSHFDAWGQGTLVTVSS
VL: RIVMTQSPGSLAVSVGESVSINCKSSQSVTNDVTWYQWKPGEAPKVLITYASIRYSGVPARFSGSGYGTDFTLTINNLQAEDVGDYFCQQDYASPFTFGQGTKLEIK
In the case of B4, the “Mean IC50 (nM)” value is 0.44 nM.

B5: 8D3-VH-Lv2/8D3-VL-G caninized antibody (antibody, V domains shown)
VH: EVTLQESGPGLVKPSQTLSLTCVASGFSIKSSFIHWLRQRPGRGLEWIGRIDPLQGATEYNPVFQGRLSITADTAKNQVSLQLSSMTTEDTAVYYCARYHYAQSHFDAWGQGTLVTVSS
VL: RIVMTQSPGSLAGSVGESVSINCKSSQSVTNDLTWYQQKPGEAPKVLIHYASQRYPGVPARFSGSGYGTDFTLTINNLQAEDVGDYFCQQDYASPFTFGQGTKLEIK
B5: the “Mean IC50 (nM)” value is 0.41 nM.

B6: 8D3-VH-L/8D3-VL-G caninized antibody (antibody, V domains shown)
VH: EVTLQESGPGLVKPSQTLSLTCVASGFSIKSSFIHWLRQRPGRGLEWIGRIDPAFGATEYNPAFQGRFSITADTAKNQASLQLSSMTTEDSAVYYCARYHYAASHFDAWGQGTLVTVSS
VL: RIVMTQSPGSLAGSVGESVSINCKSSQSVTNDLTWYQQKPGEAPKVLIHYASQRYPGVPARFSGSGYGTDFTLTINNLQAEDVGDYFCQQDYASPFTFGQGTKLEIK
Turning to B6, the “Mean IC50 (nM)” value worked out at 0.44 nM.

B7: 8D3-VH-Lv2/8D3-VL-Ev2 caninized antibody (antibody, V domains shown)
VH: EVTLQESGPGLVKPSQTLSLTCVASGFSIKSSFIHWLRQRPGRGLEWIGRIDPLQGATEYNPVFQGRLSITADTAKNQVSLQLSSMTTEDTAVYYCARYHYAQSHFDAWGQGTLVTVSS
VL: RIVMTQSPGSLAGSVGESVSINCKSSQSVTNDVTWYQQKPGEAPKVLIHYASQRYSGVPARFSGSGYGTDFTLTINNLQAEDVGDYFCQQDYASPFTFGQGTKLEIK
For the molecule B7, the “Mean IC50 (nM)” value was determined as 0.38 nM.

B8: 8D3-VH-L/8D3-VL-Ev2 caninized antibody (antibody, V domains shown)
VH: EVTLQESGPGLVKPSQTLSLTCVASGFSIKSSFIHWLRQRPGRGLEWIGRIDPAFGATEYNPAFQGRFSITADTAKNQASLQLSSMTTEDSAVYYCARYHYAASHFDAWGQGTLVTVSS
VL: RIVMTQSPGSLAGSVGESVSINCKSSQSVTNDVTWYQQKPGEAPKVLIHYASQRYSGVPARFSGSGYGTDFTLTINNLQAEDVGDYFCQQDYASPFTFGQGTKLEIK
As to B8, the “Mean IC50 (nM)” value turned out to be 0.41 nM.
